± gives the standard deviation of the averaged measurements.
The sequences below were run on ATP (assay: switch fluorescence ratio, 500 uM ATP over buffer (Cy3 cluster intensity, sum of 5 cycles each) (fold (ratio)); higher = stronger signal-on switching upon ATP binding; sequences stand for … in TCGTCGGCAGCGTCAGATGTGTATAAGAGACAGTTTTTTTTTTTTTTTTTTTTTTTTT…TC). Settings: aptamer strand: ATP DNA aptamer (quencher-CACCTGGGGGAGTATTGCGGAGGAAGG + anchor), 100 nM annealed; ATP concentration: 500 uM.
How it was run: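 The fluorescence ratio divides summed target-cycle Cy3 intensity by summed buffer-cycle Cy3 intensity for each cluster and is averaged per switch-domain sequence. Cy3-labelled switching-strand clusters on a modified Illumina MiSeq flow-cell were annealed to 100 nM quencher-labelled ATP aptamer, then imaged in selection buffer and again after 15 min with 500 uM ATP at 22 °C. Five such cycles were run, with NaOH stripping and re-annealing between them, and clusters outside 100-1000 RFU were excluded.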
With GGTGTATTTG the switch fluorescence ratio was 0.981 ± 0.013. With AGGGTAGTTG the switch fluorescence ratio was 0.994 ± 0.019. With CGGGGGTCCA the switch fluorescence ratio was 1.01 ± 0.055. With GACTTCCATT the switch fluorescence ratio was 1.07 ± 0.016. Sequence CAGTAATGTT has a switch fluorescence ratio of 0.994 ± 0.033. Work on TTGGTATTAT yielded a switch fluorescence ratio of 0.986 ± 0.02. With AGAGGTTGG the switch fluorescence ratio was 0.996 ± 0.026. TTTGACGCGC gave a switch fluorescence ratio of 1.16 ± 0.13. ATTACTGCAT showed a switch fluorescence ratio of 1.07 ± 0.059. For GACAGCGGGG, the switch fluorescence ratio was 0.999 ± 0.036. For TGATCGCTTT, the switch fluorescence ratio was 1.026 ± 0.01. TTTGGAGGTG showed a switch fluorescence ratio of 1.04 ± 0.024. Work on AAATGTGAAT yielded a switch fluorescence ratio of 1 ± 0.029. Work on GCATTATGGG yielded a switch fluorescence ratio of 1.02 ± 0.034. TTTACCATAG was tested, and the switch fluorescence ratio was 1.06 ± 0.019. In the case of GTGCTAGGGT, the switch fluorescence ratio is reported as 0.988 ± 0.02. CATTCGGGGT showed a switch fluorescence ratio of 0.994 ± 0.029. In the case of GTTGAGTAGC, the switch fluorescence ratio is reported as 1.02 ± 0.042. In the case of CTCCATCGGG, the switch fluorescence ratio is reported as 1.31 ± 0.033. ATTGGCTGGA was tested, and the switch fluorescence ratio was 0.96 ± 0.076. Work on TAAGTTATTT yielded a switch fluorescence ratio of 0.986 ± 0.031. Sequence CGTTTACCGA has a switch fluorescence ratio of 0.942 ± 0.034. For CTGTTGATGG, the switch fluorescence ratio was 1 ± 0.027. Work on TATGAGGAAC yielded a switch fluorescence ratio of 1.09 ± 0.14. With TTCCTAGTCT the switch fluorescence ratio was 1.27 ± 0.19. Work on CATAGGATTG yielded a switch fluorescence ratio of 1.0163 ± 0.00094. CGGTCGCCGG showed a switch fluorescence ratio of 1.01 ± 0.02. For AGTGTTCGCT, the switch fluorescence ratio was 0.9732 ± 0.0052. Work on CCAAGGCTGG yielded a switch fluorescence ratio of 1.02 ± 0.043. CCTTAGTTGG gave a switch fluorescence ratio of 1.02 ± 0.056. TTCATTGGTG gave a switch fluorescence ratio of 1.09 ± 0.035. TACGGATACA gave a switch fluorescence ratio of 1.18 ± 0.048. Work on AGGGTCGCTA yielded a switch fluorescence ratio of 1 ± 0.014. CGTTTGGAGC gave a switch fluorescence ratio of 0.968 ± 0.031. In the case of TTTGCCCTGG, the switch fluorescence ratio is reported as 1.1 ± 0.08. With AGTGTTGGG the switch fluorescence ratio was 0.9768 ± 0.0046. CTGGGAGCAC showed a switch fluorescence ratio of 1.89 ± 0.15. Sequence GAAATGTCGG has a switch fluorescence ratio of 1.02 ± 0.028. AGGTCTTCCG showed a switch fluorescence ratio of 1 ± 0.011. In the case of CCTCGTGTTG, the switch fluorescence ratio is reported as 1.02 ± 0.022. AGTGGGGACG was tested, and the switch fluorescence ratio was 1.031 ± 0.01. In the case of GCCAGGGTGG, the switch fluorescence ratio is reported as 1.01 ± 0.039. In the case of TGGGATGATG, the switch fluorescence ratio is reported as 1.008 ± 0.0095. ATTAGGTGTT showed a switch fluorescence ratio of 1.03 ± 0.066. AGTGCCATTG gave a switch fluorescence ratio of 0.9627 ± 0.0067. TATTTTTAGT showed a switch fluorescence ratio of 1 ± 0.027. With AGAAAAGCTC the switch fluorescence ratio was 1.02 ± 0.033. TTTGCGGAAA was tested, and the switch fluorescence ratio was 1.01 ± 0.023. With TACGATTTGG the switch fluorescence ratio was 0.993 ± 0.0027. With ACTCTGGGGG the switch fluorescence ratio was 1.07 ± 0.092. Work on AATAGCTAAA yielded a switch fluorescence ratio of 0.999 ± 0.03. TTGGGCCCGC was tested, and the switch fluorescence ratio was 1.007 ± 0.0012. GGATAAGGAG was tested, and the switch fluorescence ratio was 0.99 ± 0.051. In the case of TTAGGAATGG, the switch fluorescence ratio is reported as 1.005 ± 0.0015. For TTGAAGGTGG, the switch fluorescence ratio was 1.08 ± 0.12. Work on AGTCGTTCAG yielded a switch fluorescence ratio of 0.949 ± 0.023. ATTATTTACT gave a switch fluorescence ratio of 1.018 ± 0.0017. GGGTGTGTGC was tested, and the switch fluorescence ratio was 1.03 ± 0.08. CGGTAAAGAT was tested, and the switch fluorescence ratio was 1 ± 0.058. For TTCAAGGAGT, the switch fluorescence ratio was 1.028 ± 0.0017. For TTGGGAAGGC, the switch fluorescence ratio was 0.972 ± 0.035. Work on GGCGCCGTTT yielded a switch fluorescence ratio of 0.986 ± 0.023. With AGATAATGGC the switch fluorescence ratio was 1.11 ± 0.19. In the case of TATTTAGTCG, the switch fluorescence ratio is reported as 0.975 ± 0.019. Work on CCGAGGGCAG yielded a switch fluorescence ratio of 2.75 ± 0.36. GGATCGTCGG was tested, and the switch fluorescence ratio was 0.96 ± 0.019. In the case of CCGCTGGGCT, the switch fluorescence ratio is reported as 1.83 ± 0.056. Sequence CAATGAGTTT has a switch fluorescence ratio of 0.97 ± 0.033. TCTGTGCATA showed a switch fluorescence ratio of 1.52 ± 0.1. Work on TTAAGTATTG yielded a switch fluorescence ratio of 0.9956 ± 0.0079. TACTCCATAT showed a switch fluorescence ratio of 1.14 ± 0.019. GTTGGGGATC was tested, and the switch fluorescence ratio was 0.991 ± 0.025. In the case of GGTGGCGCTA, the switch fluorescence ratio is reported as 1.01 ± 0.02. TTTCACACTC was tested, and the switch fluorescence ratio was 1.02 ± 0.03. For TAATAGTGGG, the switch fluorescence ratio was 1.03 ± 0.041. TATGGGGTTA was tested, and the switch fluorescence ratio was 0.981 ± 0.028. For AGTAGGGTTG, the switch fluorescence ratio was 0.957 ± 0.011. TATAAATTAG gave a switch fluorescence ratio of 0.972 ± 0.026. GGGATCGGTT showed a switch fluorescence ratio of 0.982 ± 0.034. TCCTAGTTGA showed a switch fluorescence ratio of 1.024 ± 0.0012. Work on CTTCTACGAT yielded a switch fluorescence ratio of 0.998 ± 0.013. TATTGGAGTT showed a switch fluorescence ratio of 1.04 ± 0.015. Sequence TTTTATGAAG has a switch fluorescence ratio of 1.04 ± 0.02. With CACGTATTCA the switch fluorescence ratio was 1.15 ± 0.045. Sequence CGGTGTTGGC has a switch fluorescence ratio of 1.05 ± 0.081. With CCATTAATCT the switch fluorescence ratio was 1.34 ± 0.46. TTAATCGGTT showed a switch fluorescence ratio of 1.005 ± 0.01. Sequence GGGGATTAGG has a switch fluorescence ratio of 0.988 ± 0.015. CCAACCATTG showed a switch fluorescence ratio of 1.03 ± 0.011. GGACAGCGCG was tested, and the switch fluorescence ratio was 1 ± 0.07. In the case of CAGTAGAATA, the switch fluorescence ratio is reported as 1.02 ± 0.022. With GGCGAAGGCC the switch fluorescence ratio was 0.973 ± 0.02. With GGCGGGGAGG the switch fluorescence ratio was 1.01 ± 0.033. TGATCTTGGA showed a switch fluorescence ratio of 1.06 ± 0.055. With GGGTCCGCTG the switch fluorescence ratio was 1.06 ± 0.07. GTGATTAATC gave a switch fluorescence ratio of 1.01 ± 0.075. TGCTGGATTT showed a switch fluorescence ratio of 0.991 ± 0.016. Work on CTGCATCAGT yielded a switch fluorescence ratio of 1.04 ± 0.011. TTACCGTGTT was tested, and the switch fluorescence ratio was 1.08 ± 0.037. In the case of TAATTCTTAG, the switch fluorescence ratio is reported as 0.989 ± 0.02. Work on AGGGGTCTGT yielded a switch fluorescence ratio of 1.015 ± 0.0013. TTTGGAAAAC showed a switch fluorescence ratio of 0.9853 ± 0.0027. Sequence CTGGGAGATG has a switch fluorescence ratio of 0.99088 ± 0.00019. In the case of GGGGGTGTAG, the switch fluorescence ratio is reported as 1.008 ± 0.0053. With TTACTTGACT the switch fluorescence ratio was 1.116 ± 0.0085. AAGGTGGGTT gave a switch fluorescence ratio of 1.01 ± 0.059. For AACGGGAATT, the switch fluorescence ratio was 1.039 ± 0.0056. Sequence AGCATTAATT has a switch fluorescence ratio of 0.988 ± 0.043. TATCCCGGCG showed a switch fluorescence ratio of 0.9977 ± 0.0082. For AGAGGGGGCC, the switch fluorescence ratio was 0.98 ± 0.18. For ATAGAGGTGA, the switch fluorescence ratio was 1.019 ± 0.0022. With CCTTCACCTT the switch fluorescence ratio was 1.077 ± 0.0017. AGGAAGGCA showed a switch fluorescence ratio of 0.975 ± 0.05. Work on ATCGTACATA yielded a switch fluorescence ratio of 1.12 ± 0.064. GGGGGCGGGT gave a switch fluorescence ratio of 1 ± 0.044. With CTTTATGCGG the switch fluorescence ratio was 0.99361 ± 0.00077. In the case of AAGCTCGACG, the switch fluorescence ratio is reported as 0.9695 ± 0.0026. For AACGAAAAAG, the switch fluorescence ratio was 1.12 ± 0.18. ATGGAAAATT showed a switch fluorescence ratio of 1.04 ± 0.02. For AAAGTCATGT, the switch fluorescence ratio was 1.02 ± 0.05. ACCGGGGGGG gave a switch fluorescence ratio of 1 ± 0.035. AAGGGACAAA showed a switch fluorescence ratio of 1.04 ± 0.014. For TGTTATATTG, the switch fluorescence ratio was 1 ± 0.035. Work on GCACTCGGGA yielded a switch fluorescence ratio of 1.03 ± 0.027. CAAGTTTTTG showed a switch fluorescence ratio of 1.01 ± 0.033. In the case of GATAAAATAG, the switch fluorescence ratio is reported as 1.17 ± 0.2. Work on TTAGCTCATT yielded a switch fluorescence ratio of 1 ± 0.02. In the case of GTAAAGGGCG, the switch fluorescence ratio is reported as 0.973 ± 0.021. TAACCCGGGC was tested, and the switch fluorescence ratio was 1.03 ± 0.066. Sequence TTGGTTGAGG has a switch fluorescence ratio of 0.974 ± 0.02. In the case of ACGTTTGTCC, the switch fluorescence ratio is reported as 1.03 ± 0.022. GAGAAAGGCT was tested, and the switch fluorescence ratio was 0.97 ± 0.019. Work on TGGGGGTAAA yielded a switch fluorescence ratio of 0.9997 ± 0.0091. Sequence CGAAATGTCC has a switch fluorescence ratio of 1.061 ± 0.002. Sequence AATTGTAGGG has a switch fluorescence ratio of 0.987 ± 0.03. GTACGGGGGT gave a switch fluorescence ratio of 0.996 ± 0.059. Sequence GGGGAATTTA has a switch fluorescence ratio of 1 ± 0.024. For GTCGTAAGTT, the switch fluorescence ratio was 1.01 ± 0.024. Sequence CGATGGGTAA has a switch fluorescence ratio of 1 ± 0.033. Work on TAGCTGGATG yielded a switch fluorescence ratio of 0.98618 ± 0.00039. Work on CGTGTTGGG yielded a switch fluorescence ratio of 1 ± 0.028. With GATTTTACGA the switch fluorescence ratio was 0.994 ± 0.052. TATTAGTTTT showed a switch fluorescence ratio of 1.02 ± 0.047. TTTTTACAGA gave a switch fluorescence ratio of 1.04 ± 0.025. ATAAATGGGC showed a switch fluorescence ratio of 0.972 ± 0.014. In the case of CTACTCCGTT, the switch fluorescence ratio is reported as 1.29 ± 0.068. Work on GGCATTTAAA yielded a switch fluorescence ratio of 0.983 ± 0.024. Sequence GCGACCGTGT has a switch fluorescence ratio of 0.9908 ± 0.0014. Sequence TGTACCGTGC has a switch fluorescence ratio of 1.07 ± 0.068. CTCCGTGGGA was tested, and the switch fluorescence ratio was 1.9 ± 0.68. AGTTTATGCG gave a switch fluorescence ratio of 0.979 ± 0.021. GATGTAGGAT gave a switch fluorescence ratio of 0.978 ± 0.014. With TTTGGAATAT the switch fluorescence ratio was 1.04 ± 0.013. In the case of GCACGTGTTC, the switch fluorescence ratio is reported as 1.119 ± 0.0096. GCTTGGCTAT gave a switch fluorescence ratio of 0.989 ± 0.022. In the case of AGACTGTGGC, the switch fluorescence ratio is reported as 0.991 ± 0.0061. AGGTTAAGCA gave a switch fluorescence ratio of 1.02 ± 0.0034.

— the supplement of paper PMC10126150
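Also: ATP exposure 15 min at 22 °C before imaging.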
